# Literature values, collected in article PMC4664829.
# Read-outs that look alike come from different tables or passages of the source.
# Assays:
# Glu14 [1] = molecular target: T1, Glu14 (UniProt position 14, GAILAEVIGTT); experiment: kinetics; settings: TPP+ association with substrate-free EmrE
# Glu14 [2] = molecular target: T1, Glu14; settings: proton release from EmrE
substance,measurement,setting,value
EmrE (small multidrug resistance transporter) (Escherichia coli),pKa,Glu14 [1],7.3
same,pKa,Glu14 [2],8.4
